Molecular target: T1, recombinant Der p 2 (Dermatophagoides pteronyssinus …, UniProt P49278)
T1 chain: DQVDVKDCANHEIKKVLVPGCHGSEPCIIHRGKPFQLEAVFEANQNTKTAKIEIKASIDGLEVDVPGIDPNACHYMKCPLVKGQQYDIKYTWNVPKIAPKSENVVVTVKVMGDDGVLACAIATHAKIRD
Experiment: ELISA (coated rDer p 2, Siglec-Fc binding); Unmodified rDer p 2 does not bind; binding to Siglec-9-Fc requires chemical conjugation of α2-3 sialic acids to rDer p 2 (sia-rDer p 2)

B1: Siglec-9–hFc chimera (protein)
chain: QTSKLLTMQSSVTVQEGLCVHVPCSFSYPSHGWIYPGPVVHGYWFREGANTDQDAPVATNNPARAVWEETRDRFHLLGDPHTKNCTLSIRDARRSDAGRYFFRMEKGSIKWNYKHHRLSVNVTALTHRPNILIPGTLESGCPQNLTCSVPWACEQGTPPMISWIGTSVSPLDPSTTRSSVLTLIPQPQDHGTSLTCQVTFPGASVTTNKTVHLNVSYPPQNLTMTVFQGDGTVSTVLGNGSSLSLPEGQSLRLVCAVDAVDSNPPARLSLSWRGLTLCPSQPSNPGVLELPWVHLRDAAEFTCRAQNPLGSQQVYLNVSLQSKATSGVTQG
binding result: no binding

Reference: PMC10770723 (2023)
